# Patent US20110117113A1, “IMMUNOGLOBULIN SINGLE VARIABLE DOMAIN DIRECTED AGAINST HUMAN CXCR4 AND OTHER CELL ASSOCIATED PROTEINS AND METHODS TO GENERATE THEM” (priority 2009, published 2011)
# Entries after “also recorded” stand apart in the source; their conditions may differ.
# Tests used:
# CXCR4 = molecular target: T1, CXCR4 (Homo sapiens, UniProt P61073); assay: Competition binding, displacement of [^125I]-CXCL12 on membranes from HEK293T cells transiently expressing CXCR4
# T1 construct: expressed in transfected cells; host or cells: HEK293T, transient; membrane fraction
# Method: Iodine incorporation and specific activity were controlled via precipitation of the protein with trichloroacetic acid.
# Competition binding assay—Periplasmic fractions were screened in a competition binding assay using membranes from HEK293T cells transiently expressing CXCR4. […] Membranes were then harvested over polyethylenimine (0.5%)-treated Whatman GF/C filter plates and washed three times with ice cold binding buffer containing 500 mM NaCl. Plates were counted by liquid scintillation.
# Characterization of Nanobody binding to CXCR4—Following purification, receptor binding to characteristics for 238D2 and 238D4 were investigated on cell membranes from HEK293T cells transiently expressing CXCR4.
# Data analysis and presentation—Data are presented as mean±S.E.M. from n independent experiments. Concentration response curves (E/[A] curves) were fitted to the Hill equation using an iterative, least-squares method (GraphPad Prism 4.0, GraphPad Software, San Diego, Calif.) to provide maximal inhibitory effects (Imax), half maximal effective (EC50) or inhibitory concentrations (IC50). Competition binding affinities and functional antagonist affinities (Ki) were calculated using the Cheng and Prusoff equation Ki=IC50/(1+[agonist]/EC50) (Cheng & Prusoff, 1973).
# CXCR4 (N119A) = molecular target: T2, CXCR4 (N119A) (Homo sapiens, UniProt P61073, N119A); assay: Basal inositol phosphate accumulation in HEK293T cells transiently expressing CXCR4 (N119A); format: cell-based; settings: ligand-induced alteration of basal inositol phosphate accumulation
# T2 construct: expressed in transfected cells; host or cells: HEK293T, transient; membranes in A4, whole cells in A5
# Text: The functional profile of monovalent Nanobodies 238D2 and 238D4 as well as their bivalent fusion products L3 and L8 on CXCR4 (N119A) were investigated by measurement of the ligand-induced alteration of the basal inositol phosphate accumulation. HEK293T cells transiently expressing CXCR4 (N119A) show a 3-8 times higher basal rate of inositol phosphate accumulation compared to wild type CXCR4 or mock (which are virtually at the same level). […] The nanobody-induced reduction of basal inositol phosphate accumulation was antagonized by the selective neutral CXCR4 antagonist plerixafor confirming that the observed […] effects are mediated via CXCR4 (N119A).
# CXCR4 mutant 1 (F189V) = molecular target: T3, CXCR4 mutant 1 (F189V) (Homo sapiens, UniProt P61073, F189V); assay: Footprint assay, flow cytometry binding to CXCR4 F189V on Hek293T cells; settings: Myc-tag detection, 10 nM and 100 nM Nanobody, average n = 3, relative to hCXCR4
# T3 construct: expressed in transfected cells; host or cells: Hek293T, transient, pcDNA3.1
# Text: Based on the data from example 1.8, we introduced 3 single point-mutations in ECL2 of CXCR4 that allowed to discriminate between 238D2 and 238D4-like epitopes: V196E (specifically disturbing D2 binding)-SEQ ID NO: 20, D187V (specifically disturbing D4 binding)-SEQ ID NO: 21, F189V (disturbing binding of both D2 and D4)-SEQ ID NO: 19. […] For the epitope mapping, transient transfections of the three CXCR4 mutants and wildtype human CXCR4 in the pcDNA3.1 vector were done in Hek293T cells, after which Nanobody binding of different families was assessed by flow cytometry using detection of the Myc-tag, followed by secondary anti-mouse PE. Two concentrations of Nanobody were tested, 10 nM and 100 nM, and experiment was repeated with essentially the same results. Binding of the Nanobodies to HEK293T hCXCR4 cells was used for normalization using the following formulas:
# Percentage of binding to the mutant receptors was calculated for each Nanobody concentration, and a position was considered as critical when less than 25% residual binding (average of n=3) was observed (Table C-5). […] Nanobodies could be grouped according to their different binding patterns, not only in “238D2-like” or “epitope A binders” and “238D4-like” or “epitope B binders” but also into other new groups.
# [1] = molecular target: CXCR4 mutation library clone 2396 (S178C) (human, UniProt P61073 1-352); assay: immunofluorescence on HEK-293T expressing the clone, normalised to wild type
# [2] = molecular target: T4, CXCR4 mutation library clone 1057 (K230E, S178R) (human, UniProt P61073 1-352); assay: as above
# T4 chain: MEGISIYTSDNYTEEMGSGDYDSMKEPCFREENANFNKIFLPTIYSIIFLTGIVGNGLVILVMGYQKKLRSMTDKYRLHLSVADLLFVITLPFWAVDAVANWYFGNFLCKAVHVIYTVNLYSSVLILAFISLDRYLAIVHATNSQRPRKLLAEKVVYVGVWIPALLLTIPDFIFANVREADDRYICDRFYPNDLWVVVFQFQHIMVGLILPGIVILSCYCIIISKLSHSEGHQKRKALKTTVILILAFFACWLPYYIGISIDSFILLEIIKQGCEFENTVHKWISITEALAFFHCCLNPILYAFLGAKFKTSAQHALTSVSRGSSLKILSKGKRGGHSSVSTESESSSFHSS
# [3] = molecular target: T5, CXCR4 mutation library clone 414 (C218R, E179V, S351T) (human, UniProt P61073 1-352); assay: as above
# T5 chain: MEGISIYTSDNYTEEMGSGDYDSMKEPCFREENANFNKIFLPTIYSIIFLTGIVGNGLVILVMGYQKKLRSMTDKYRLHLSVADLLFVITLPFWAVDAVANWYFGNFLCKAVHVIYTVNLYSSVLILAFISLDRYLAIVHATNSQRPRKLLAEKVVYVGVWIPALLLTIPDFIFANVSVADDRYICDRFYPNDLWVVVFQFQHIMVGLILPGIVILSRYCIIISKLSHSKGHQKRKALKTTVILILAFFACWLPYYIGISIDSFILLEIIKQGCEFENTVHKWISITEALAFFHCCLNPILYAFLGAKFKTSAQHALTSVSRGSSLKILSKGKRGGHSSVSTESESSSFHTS
# [4] = molecular target: CXCR4 mutation library clone 1129 (F189V) (human, UniProt P61073 1-352); assay: as above
# [5] = molecular target: CXCR4 mutation library clone 2184 (P191T) (human, UniProt P61073 1-352); assay: as above
# T1 sequence (P61073 whole entry): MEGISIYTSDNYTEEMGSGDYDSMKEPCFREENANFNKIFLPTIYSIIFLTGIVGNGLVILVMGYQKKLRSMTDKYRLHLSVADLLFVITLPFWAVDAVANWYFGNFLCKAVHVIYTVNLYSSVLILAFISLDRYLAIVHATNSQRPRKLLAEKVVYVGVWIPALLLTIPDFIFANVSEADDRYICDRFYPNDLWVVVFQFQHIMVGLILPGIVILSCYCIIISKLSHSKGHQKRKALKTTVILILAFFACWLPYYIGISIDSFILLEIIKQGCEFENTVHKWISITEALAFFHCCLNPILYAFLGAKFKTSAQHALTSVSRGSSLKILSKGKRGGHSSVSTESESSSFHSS
# T2 sequence (P61073 whole entry N119A): as the sequence (P61073 whole entry) above, with N119A counted along it
# T3 sequence (P61073 whole entry F189V): as the sequence (P61073 whole entry) above, with F189V counted along it
Molecule,"functional antagonist affinities (Ki) to CXCR4 (CXCR4; in words, [^125I]-CXCL12 displacement)","[^125I]-CXCL12 Displacem. (%) (CXCR4; maximal displacement, membranes from HEK293T cells transiently expressing CXCR4, mean ± S.E.M.)",displacement of specifically bound [^125I]-CXCL12 (in words) (CXCR4; membranes from HEK293T cells transiently expressing CXCR4),"[^125I]-CXCL12 pKi (CXCR4; receptor affinity, membranes from HEK293T cells transiently expressing CXCR4, mean ± S.E.M.)",functional profile on CXCR4 (N119A) (in words) (CXCR4 (N119A)),HEK293T F189V binding (CXCR4 mutant 1 (F189V)),% immunofluorescence [1] [%],% immunofluorescence [2] [%],% immunofluorescence [3] [%],% immunofluorescence [4] [%],% immunofluorescence [5] [%]
"238D2: monovalent anti CXCR4 Nanobody, SEQ ID NO: 2 (protein, Nanobody) VHH: EVQLVESGGGLVQTGGSLRLSCAASGFTFSSYAMSWVRQAPGKGLEWVSGIKSSGDSTRYAGSVKGRFTISRDNAKNMLYLQMYSLKPEDTAVYYCAKSRVSRTGLYTYDNRGQGTQVTVSS",low nanomolar range,93 ± 5,strongly displacing; also recorded: fully displace,8.01 ± 0.12,Only antagonistic but no significant inverse agonistic activities,− (<=25% binding to mutant rel. to hCXCR4),–,–,–,–,–
Nanobody 238D4 (VHH) VHH: EVQLMESGGGLVQAGGSLRLSCAASGRTFNNYAMGWFRRAPGKEREFVAAITRSGVRSGVSAIYGDSVKDRFTISRDNAKNTLYLQMNSLKPEDTAVYTCAASAIGSGALRRFEYDYSGQGTQVTVSS,–,–,–,–,–,–,28.2,11.4,8,5.2,124
